Measured values from patent EP1207198A1.

Target: human brain-derived G protein-coupled receptor protein ZAQ (human)
Assay: cell-based or functional assay

Question: How did the increase in the intracellular calcium ion concentration (FLIPR), EC50 turn out when “Human type ZAQ ligand mature peptide (type G, 86 amino acid residues)” was run?
Answer: 0.096 nM
